Earlier results on one substance are cited in PMC11794116.

pKd: −log10 of the molar value.

The target in this data set is CD16a (F176) (Homo sapiens) (UniProt P08637).
CD16a (F176) (Homo sapiens), sequence (P08637 17-208): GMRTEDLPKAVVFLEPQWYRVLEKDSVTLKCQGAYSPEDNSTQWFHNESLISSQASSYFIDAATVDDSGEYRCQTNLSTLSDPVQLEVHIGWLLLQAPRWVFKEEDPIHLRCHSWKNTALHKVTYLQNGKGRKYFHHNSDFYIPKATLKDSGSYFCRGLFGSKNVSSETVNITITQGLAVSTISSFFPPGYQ

As for trastuzumab Fc, the pKd is 5.97.

By pKd is commonly meant the Kd on a negative log10 scale, so that one unit is a factor of ten.
